For orientation: EC50 means the concentration that produces a half-maximal response. The low end stands for higher potency in that assay, the high end for lower potency in that assay. For orientation: koff means a measure of how fast the partners let go of each other. Lower therefore signals a long-lived complex. In general, kon refers to the second-order rate constant of association. In general, t½ refers to the time needed for the level to fall by half in the phase considered. Read a low t½ as rapid decline.

The target in experiment [1] is T1, human PDGF-BB (human, UniProt P01127 82-190). In words: cell-based or functional assay.
In experiment [2] the target is T1, human PDGF-BB. In words: SPR, IgG, apparent KD (App. KD**). On the technique in general: In SPR one partner is held on a chip, and binding of the other changes the refractive index at the surface.
Experiment [3] deals with T2, cynomolgus PDGF-BB (cynomolgus, UniProt A0A2K5UX81 82-190, Disulfide-linked homodimer of two identical B chains; one copy is given.).
T2 construct: also called cynPDGF-BB
In words: ELISA, cynomolgus PDGF-BB (Example 10).

In experiment [4] the target is rat PDGF-BB (rat, UniProt Q05028 74-182). The experiment in a line: ELISA, immobilized rat PDGF-BB (Example 12). On the procedure:
(§1) The binding analysis was carried out using an enzyme-linked immunosorbent assay (ELISA)-based technology. The antigen rat PDGF-BB (R&D, 520-BB) was immobilized at a concentration of 125 ng/mL in 25 μL in PBS, 0.5% BSA and 0.05% Tween on a 384 well microtiter plate (Thermo Scientific, Cat. No. 464718). Every of the following steps was followed by a washing routine of 3 times 90 μL PBS, 0.5% BSA, 0.05 Tween with dispense and aspiration: 1) blocking step: saturating unbound surface (1 hour, 2% BSA); 2) anti-PDGF-BB antibody in increasing concentrations for 1 hour; 3) detection antibody, dilution=1:3000 (ECL anti-rabbit IgG-POD, NA9340V+ECL anti-human IgG-POD, NA933V or alternatively for murine antibodies ECL anti-mouse IgG-POD; NA 9310V). 20-30 min. after adding the substrate 3,3′,5,5′-tetramethylbenzidine (TMB, Piercenet, Cat. No. 34021) the optical density was determined at 370 nm. The EC₅₀ was calculated with a four parameter logistic model using GraphPad Prism 6.0 software.

The target of experiment [5] is T1, human PDGF-BB. In words: ELISA, immobilized human PDGF-BB (Example 9). How it is done: as §1, with “antigen human” for “antigen rat”, “PDGF-BB (Cell Signaling, Cat. No 8921BF)” for “PDGF-BB (R&D, 520-BB)”, “μL PBS” for “μL PBS, 0.5% BSA, 0.05 Tween”
For experiment [6], the target named is T3, murine PDGF-BB (murine, UniProt P31240 82-190).
T3 construct: also called muPDGF-BB
The experiment in a line: ELISA, immobilized murine PDGF-BB (Example 11). On the procedure: as §1, with “antigen murine” for “antigen rat”, “PDGF-BB (Peprotech 315-18)” for “PDGF-BB (R&D, 520-BB)”

The target of experiment [7] is T2, cynomolgus PDGF-BB. In words: SPR, IgG on immobilized cynomolgus PDGF-BB (Example 18). How it is done: The binding analysis was carried out using a surface plasmon resonance spectroscopy-based technology applying a BIAcore B4000 system (GE Healthcare). The antigen cynomolgus PDGF-BB was immobilized at a concentration of 1 μg/mL in PBS, 0.1% BSA, 0.05% Tween using amine coupling chemistry on a C1 sensor chip (GE Healthcare, Cat. No. BR-1005-35). Anti-PDGF-BB antibody in increasing concentrations was applied in 10 mM HEPES pH 7.2, 150 mM NaCl. Utilizing a read out time of 180 sec. association phase and 600 sec. dissociation phase the apparent kₐ and apparent kd were calculated. The apparent KD (avidity) was calculated using the BIAcore T200 v2.0 fitting software.

Experiment [8] concerns the target T1, human PDGF-BB. In words: SPR kinetic screening, IgG on immobilized human PDGF-BB (Example 27). On the procedure: Binding of anti-PDGF-BB antibodies to human PDGF-BB was investigated by surface plasmon resonance using a BIACORE T200 instrument (GE Healthcare). Around 20 resonance units (RU) of recombinant human PDGF-BB (5 μg/ml; ordering code 220-BB; R&D Systems) were coupled on a Series S C1 chip (GE Healthcare BR-1005-35) at pH 4.0 by using an amine coupling kit supplied by GE Healthcare. Running buffer for immobilization was HBS-N pH 7.4 (10 mM HEPES, 150 mM NaCl, pH 7.4, GE Healthcare). For the following kinetic characterization, running and dilution buffer was HBS-P pH 7.4 (10 mM HEPES, 150 mM NaCl, 0.05% Surfactant P20, pH 7.4, GE Healthcare). The flow cell was set to 25° C.—and the sample block set to 12° C.—and primed with running buffer twice.

T3 sequence (P31240 82-190): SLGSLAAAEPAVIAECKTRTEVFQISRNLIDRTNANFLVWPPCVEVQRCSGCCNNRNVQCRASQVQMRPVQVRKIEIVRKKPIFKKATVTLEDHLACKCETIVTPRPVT
T2 sequence (A0A2K5UX81 entry or part of it limits assumed): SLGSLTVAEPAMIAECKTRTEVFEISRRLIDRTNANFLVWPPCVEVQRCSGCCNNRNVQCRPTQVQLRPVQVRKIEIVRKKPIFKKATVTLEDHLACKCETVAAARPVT
rat PDGF-BB, sequence (Q05028 74-182): as the sequence (P31240 82-190) above, with I83V, I102V counted along it
T1 sequence (P01127 82-190 limits assumed): as the sequence (A0A2K5UX81 entry or part of it limits assumed) above, with V7I counted along it

B1: antibody 0058 (antibody, V domains shown)
VH: EVQLVESGGGLVQPGGSLRLSCAASGFTFSSFWMTWVRQAPGKGLEWVASISAGGGITHYPDSVKDRFTVSRDNAKNSLYLQLNSLRAEDTAVYYCAESGGDIYSDFDYWGQGTLVTVSS
VL: not shown
notes: Human antibody from a human Ig locus transgenic rabbit; IgG
Take B1: the “IC50 Phospho-Inhibition” value in experiment [1] worked out at 2.9 ng/mL. The “IC50 Proliferation 3T3” value in experiment [1] was 79.3 ng/mL. Moreover, the Kd in experiment [2] was determined as 0.046 nM. Also, the EC50 in experiment [3] amounted to 3.4 ng/mL; in experiment [4], 0.0966 µg/mL; in experiment [5], 0.0401 µg/mL; in experiment [6], 0.0332 µg/mL. The values for the koff in experiment [7] and in experiment [8] were 6.53e-05 s⁻¹ and 0.000291 s⁻¹, respectively. For the same molecule, the kon in experiment [7] came out at 2.27e+06 M⁻¹ s⁻¹. Moreover, the t½ in experiment [8] is 40 min.

B2: antibody 0064 (antibody, V domains shown)
VH: EVQLVESGGGLVQPGGSLRLSCAASGFTFSSYWMSWVRQAPGKGLEWVSTISDGGGTTSYADSVKGRFTISRDNSKNTLYLQMNSLRAEDTAVYSCAESGGATDYLFDYWGQGTLVTVSS
VL: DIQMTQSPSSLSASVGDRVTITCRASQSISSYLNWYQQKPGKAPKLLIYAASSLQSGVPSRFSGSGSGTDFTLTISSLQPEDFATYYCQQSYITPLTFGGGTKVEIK
notes: as for B1
Turning to B2, the “IC50 Proliferation 3T3” value in experiment [1] turned out to be 62 ng/mL. Further, in experiment [2], the Kd was determined as 0.021 nM. The 50% effective concentration (EC50) in experiment [3] came out at 7.41 ng/mL; in experiment [4], 0.00369 µg/mL; in experiment [5], 0.016 µg/mL; in experiment [6], 0.00268 µg/mL. Also, the results for the koff in experiment [7] and in experiment [8] were 4.42e-05 s⁻¹ and 0.000135 s⁻¹, respectively. The kon in experiment [7] was determined as 740000 M⁻¹ s⁻¹. This molecule also yielded a t½ in experiment [8] of 85 min.

B3: antibody 0060 (antibody, V domains shown)
VH: EVQLLESGGDLVQPGGSLRLSCAASGFTFRSYAMSWVRQAPGKGLEWVSGISAGGGYIYYADSVTGRFTSSRDNYKNTLYLQMNRLRVEDTAVYYCARFYPGYNSDTYYYDGMDVWGQGTTVTVSS
VL: not shown
notes: as for B1
Take B3: the “IC50 Phospho-Inhibition” value in experiment [1] came out at 1.6 ng/mL. Also, the “IC50 Proliferation 3T3” value in experiment [1] was found to be 36.3 ng/mL. Further, the Kd in experiment [2] worked out at 0.021 nM. The 50% effective concentration (EC50) stood at 41.5 ng/mL in experiment [3], 0.11 µg/mL in experiment [4], 0.0375 µg/mL in experiment [5] and 0.0428 µg/mL in experiment [6]. In addition, the koff in experiment [7] was under 1e-05 s⁻¹; in experiment [8], 0.000264 s⁻¹. Moreover, the kon in experiment [7] is 330000 M⁻¹ s⁻¹. The t½ in experiment [8] was determined as 44 min.

(Values after patent publication US20170247440A1 (Hoffmann-La Roche, published 2017).)
